Data from the supplement of paper PMC7877785.
± gives the uncertainty stated by the source.

Assay: self-splicing fitness, log relative to wild type (ln ratio); higher = more splicing; Tetrahymena group I intron in knt gene, E. coli kanamycin selection, DiMSum; sequences stand for … in CUCUCU…GGAGGGAAAAGUUAUCAGGCAUGCACCUGGUAGCUAGUCUUUAAACCAAUAGAUUGCAUCGGUUUAAAAGGCAAGACCGUCAAAUUGCGGGAAAGGGGUCAACAGCCGUUCAGUACCAAGUCUCAGGGGAAACUUUGAGAUGGCCUUGCAAAGGGUAUGGUAAUAAGCUGACGGACAUGGUCCUAACCACGCAGCCAAGUCCUAAGUCAACAGAUCUUCUGUUGAUAUGGAUGCAGUUCACAGACUAAAUGUCGGUCGGGGAAGAUGUAUUCUUCUCAUAAGAUAUAGUCGGACCUCUCCUUAAUGGGAGCUAGCGGAUGAAGUGAUGCAACACUGGAGCCGCUGGGAACUAAUUUGUAUGCGAAAGUAUAUUGAUUAGUUUUGGAGUACUCGUGGUCG
In short: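 Six replicate transformations of E. coli BL21(DE3) with a pET-22b(+) library were grown overnight at 37°C or 30°C. The library randomised all eight P1ex-region intron nucleotides, the intron lying in the knt kanamycin-resistance gene, and plates were LB agar with or without 25 μg/mL kanamycin plus 100 μg/mL carbenicillin, 50 μM IPTG and 0.2% rhamnose. Pooled colonies were amplicon-sequenced on an Illumina HiSeq 2500, and fitness is the DiMSum error-weighted combination of wild-type-normalised replicate fold changes, kanamycin versus none.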

Sequence	self-splicing fitness (ln) (30 °C)	self-splicing fitness (ln) (37 °C)
UAGCAGCAAUAUUACGAGCG	0.035 ± 0.078	0.235 ± 0.098
GCGGAGCAAUAUUACGCAAU	-3.51 ± 0.43	
UUCAAGCAAUAUUACGUUAU	-4.39 ± 0.21	-2.3 ± 0.15
ACCUAGCAAUAUUACGCGAC	-2.55 ± 0.2	-0.855 ± 0.19
AAGUAGCAAUAUUACGUACC	-0.997 ± 0.16	-0.0515 ± 0.15
UACGAGCAAUAUUACGUCGG	-3.5 ± 0.23	-1.38 ± 0.15
CUGUAGCAAUAUUACGUUGA	-2.93 ± 0.2	-2.43 ± 0.2
AAGAAGCAAUAUUACGAAAC	-1.82 ± 0.17	-0.859 ± 0.15
UGUAAGCAAUAUUACGGUAA	-1.8 ± 0.2	-0.586 ± 0.12
CUUUAGCAAUAUUACGCCGG	-1.74 ± 0.16	-1.22 ± 0.19
GUCGAGCAAUAUUACGGCCU	-2.83 ± 0.34	
UCUCAGCAAUAUUACGUGCG	-3 ± 0.22	-1.44 ± 0.18
GACCAGCAAUAUUACGUCAU	-1.66 ± 0.058	-0.747 ± 0.062
CCCUAGCAAUAUUACGAAGA	-2.34 ± 0.21	-2.67 ± 0.26
GGUGAGCAAUAUUACGGUAA		-2.66 ± 0.4
UUGAAGCAAUAUUACGCGGU	-2.94 ± 0.16	-2.3 ± 0.19
UACAAGCAAUAUUACGCCAU	-3.15 ± 0.17	-2.62 ± 0.22
GCCCAGCAAUAUUACGAAUA	-1.62 ± 0.1	-1.19 ± 0.12
GCGUAGCAAUAUUACGAGCU	-1.5 ± 0.12	-1.66 ± 0.23
CAGGAGCAAUAUUACGUAAU	-3.99 ± 0.47	-2.78 ± 0.44
UCUGAGCAAUAUUACGGCCU	-3.3 ± 0.29	-1.6 ± 0.3
GCGAAGCAAUAUUACGAAAG	-4.38 ± 0.4	-1.14 ± 0.18
UACGAGCAAUAUUACGUAGA	-3.47 ± 0.17	-2.77 ± 0.29
UAACAGCAAUAUUACGACGA	0.245 ± 0.069	0.319 ± 0.083
CAUAAGCAAUAUUACGGCUA	-1.56 ± 0.13	-1.51 ± 0.12

Sequence	self-splicing fitness (ln) (30 °C)	self-splicing fitness (ln) (37 °C)
CACUAGCAAUAUUACGCGAC	-3.04 ± 0.18	-3.16 ± 0.3
AAAUAGCAAUAUUACGAUAG	-3.17 ± 0.27	-2.49 ± 0.23
CCCAAGCAAUAUUACGGAUA	-2.84 ± 0.22	-2.17 ± 0.21
AUCAAGCAAUAUUACGCCCG	-0.965 ± 0.17	-0.202 ± 0.2
AGGAAGCAAUAUUACGUAUG	-2.39 ± 0.14	-2.3 ± 0.16
CACUAGCAAUAUUACGAGCA	-3.42 ± 0.18	-0.879 ± 0.11
CGGCAGCAAUAUUACGGGAG	-2.36 ± 0.15	-1.77 ± 0.18
CUGCAGCAAUAUUACGCGGG	-3.94 ± 0.23	-1.65 ± 0.18
ACGGAGCAAUAUUACGGAGU	-2.53 ± 0.27	-1.55 ± 0.18
AAAGAGCAAUAUUACGCUAG	-2.87 ± 0.17	-2.42 ± 0.27
AGGAAGCAAUAUUACGACGC	-0.0969 ± 0.13	-0.574 ± 0.14
CGUCAGCAAUAUUACGUGUA	-3.11 ± 0.099	-1.66 ± 0.083
CUCCAGCAAUAUUACGGUGU	-4.11 ± 0.15	-2.28 ± 0.13
CCAAAGCAAUAUUACGACGC	-3.71 ± 0.35	
GUUAAGCAAUAUUACGUACC	-0.386 ± 0.29	
CCUUAGCAAUAUUACGUGCA	-3.43 ± 0.23	-3.76 ± 0.28
CGUCAGCAAUAUUACGGUAC	-3.64 ± 0.31	-1.89 ± 0.27
GGGAAGCAAUAUUACGGUUA	-1.27 ± 0.11	-0.726 ± 0.1
UUCUAGCAAUAUUACGAGUC		-1.86 ± 0.39
GCACAGCAAUAUUACGGUUG	-2.18 ± 0.059	-1.02 ± 0.072
AUAUAGCAAUAUUACGUAAG	-1.61 ± 0.14	-0.705 ± 0.19
CUCGAGCAAUAUUACGGGCG	-2.65 ± 0.17	-2.1 ± 0.25
UGGUAGCAAUAUUACGGCGC	-1.57 ± 0.37	-0.642 ± 0.3
UAUGAGCAAUAUUACGGAAG	-3.37 ± 0.37	-2.14 ± 0.36
UCAAAGCAAUAUUACGAACU	-3.14 ± 0.19	-1.97 ± 0.23

Sequence	self-splicing fitness (ln) (30 °C)	self-splicing fitness (ln) (37 °C)
GCGCAGCAAUAUUACGUACU	-1.32 ± 0.072	-0.505 ± 0.092
AAUAAGCAAUAUUACGGGUU	-2.37 ± 0.13	-1.43 ± 0.16
GUGGAGCAAUAUUACGUAGA	-2.11 ± 0.45	-1.16 ± 0.23
AGUAAGCAAUAUUACGGUUA	-0.833 ± 0.11	-0.477 ± 0.092
CUGAAGCAAUAUUACGUUAG	-0.376 ± 0.063	0.25 ± 0.096
AGUCAGCAAUAUUACGACCC	-0.401 ± 0.19	-0.72 ± 0.29
GAAAAGCAAUAUUACGGCGU	-0.208 ± 0.095	0.24 ± 0.11
GGGUAGCAAUAUUACGUAUC	-1.3 ± 0.21	-0.963 ± 0.24
CUGUAGCAAUAUUACGGCGU	-3.75 ± 0.33	-2.2 ± 0.33
GGCAAGCAAUAUUACGGCAA	0.2 ± 0.086	0.388 ± 0.12
GGCCAGCAAUAUUACGUAUG	-4.17 ± 0.31	-2.85 ± 0.26
GUGGAGCAAUAUUACGUUUU	-3.35 ± 0.28	-2.48 ± 0.48
UCCCAGCAAUAUUACGGAAG	-3.24 ± 0.12	-2.88 ± 0.23
GCGAAGCAAUAUUACGGAUU	-1.33 ± 0.13	-1.17 ± 0.15
UUACAGCAAUAUUACGAUAC	-3.01 ± 0.32	-3.46 ± 0.39
GCACAGCAAUAUUACGACUU	-0.119 ± 0.076	0.33 ± 0.088
CCAAAGCAAUAUUACGAGGG	-3.76 ± 0.22	-1.56 ± 0.16
CAGUAGCAAUAUUACGUGAU	-4.22 ± 0.34	-1.2 ± 0.15
CCGAAGCAAUAUUACGUAUU	-4.74 ± 0.29	-3.35 ± 0.2
CAGGAGCAAUAUUACGGAGG	-2.02 ± 0.095	-1.21 ± 0.12
UAAUAGCAAUAUUACGACCA	-0.451 ± 0.2	0.216 ± 0.31
ACAUAGCAAUAUUACGGAAU	-3.72 ± 0.19	-2.44 ± 0.19
AGCAAGCAAUAUUACGGACG	-0.404 ± 0.061	-0.244 ± 0.086
UUCAAGCAAUAUUACGGUCA	-0.929 ± 0.097	0.00589 ± 0.098
CAGAAGCAAUAUUACGAAAU	-3.92 ± 0.42	-1.33 ± 0.38

Sequence	self-splicing fitness (ln) (30 °C)	self-splicing fitness (ln) (37 °C)
AGAAAGCAAUAUUACGAGGU	-3.59 ± 0.26	-1.93 ± 0.23
UUUCAGCAAUAUUACGCGGA	-2.2 ± 0.14	-1.54 ± 0.15
GCCUAGCAAUAUUACGACAC	-1.06 ± 0.21	-0.38 ± 0.27
AGUGAGCAAUAUUACGGUGA	-3.03 ± 0.31	-2.96 ± 0.3
ACAUAGCAAUAUUACGGCUG	-0.175 ± 0.067	-0.366 ± 0.095
UGACAGCAAUAUUACGCCAA	-1.51 ± 0.14	-0.461 ± 0.12
ACGCAGCAAUAUUACGCAUC	-2.1 ± 0.11	-1.47 ± 0.16
CGGAAGCAAUAUUACGUUUG	-1.9 ± 0.071	-1.35 ± 0.089
AUCCAGCAAUAUUACGGAGG	-2.21 ± 0.097	-0.607 ± 0.13
AUCUAGCAAUAUUACGGGUA	-1.97 ± 0.15	-1.49 ± 0.12
CCGCAGCAAUAUUACGACGU	-3.96 ± 0.21	-2.38 ± 0.22
UCCAAGCAAUAUUACGCUCG	-4.74 ± 0.45	-2.28 ± 0.49
GACAAGCAAUAUUACGGGCC	-1.81 ± 0.18	-1.96 ± 0.17
GUGGAGCAAUAUUACGGUCA	-2.12 ± 0.17	-1.23 ± 0.13
CGUGAGCAAUAUUACGUGUG	-1.39 ± 0.1	-0.501 ± 0.1
UGACAGCAAUAUUACGCGUC	-4.67 ± 0.38	-3.62 ± 0.27
UCGAAGCAAUAUUACGUGUU	-3.56 ± 0.2	-2.47 ± 0.19
GACUAGCAAUAUUACGCCGU	-2.15 ± 0.11	-0.995 ± 0.1
AGGGAGCAAUAUUACGUGGG	-3.31 ± 0.2	
GCCCAGCAAUAUUACGGGCA	-2.35 ± 0.2	-2.69 ± 0.21
ACUAAGCAAUAUUACGCGCU	-0.324 ± 0.093	0.362 ± 0.13
CGUCAGCAAUAUUACGUUGA	-3.04 ± 0.26	-2.26 ± 0.19
